Test [1] has as its target MarR (wild type, Escherichia coli), one subunit of the MarR homodimer (E. coli). The test can be described thus: X-ray crystal structure, MarR-salicylate co-crystal.
For test [2], the target named is T1, MarR (Escherichia coli, UniProt P27245). The settings on record: salicylate at millimolar concentrations; cited from earlier work.
In test [3] the target is T1, MarR. The settings on record: salicylate at millimolar concentrations; cited from earlier work. The source holds these as a separate data set.

T1 sequence (P27245 whole entry): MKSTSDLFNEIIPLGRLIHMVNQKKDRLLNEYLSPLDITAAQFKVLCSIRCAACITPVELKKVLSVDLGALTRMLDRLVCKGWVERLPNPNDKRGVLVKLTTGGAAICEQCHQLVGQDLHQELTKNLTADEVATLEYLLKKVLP

In test [1], “MarR (wild type, Escherichia coli), one subunit of the MarR homodimer” gave a buried surface area (N-/C-terminal hydrophobic core) of 3570 Å^2 and a total buried surface area for the whole dimer of 3700 Å^2.
For `O=C([O-])c1ccccc1O.[Na+]` [sodium salicylate], the “MarR activity in vitro” value on MarR [2] is on record as “inhibit MarR activity”. In addition, the “MarR activity in whole cells” value at MarR [3] is “inhibit MarR activity”.
